Data set [1] deals with T1, SMAD3 MH1 (human (Fig. 1/3 legends), UniProt P84022 10-136). In words: EMSA; Hill h = 1.80 ± 0.23; double binding; EMSA: 7.5 nM Cy5-dsDNA, 200 mM Tris pH 7.2, 100 mM NaCl, 2 mM TCEP, 15 min on ice; 6% PAGE in TG buffer, 4 °C; Hill fit, n = 2. Particulars: protein: recombinant; tags: N-terminal His tag cleaved (TEV or 3C); chain copies: 2; label: 5'-Cy5. In general terms: Mobility shift assays separate free from complexed probe on a gel.

The next data set concerns the target SMAD4 MH1 (human (Fig. 1 legend), UniProt Q13485 18-142). In words: EMSA; EMSA: 7.5 nM Cy5-dsDNA, 200 mM Tris pH 7.2, 100 mM NaCl, 2 mM TCEP, 15 min on ice; 6% PAGE in TG buffer, 4 °C; Hill fit, n = 2. The conditions noted are these: protein: recombinant; tags: N-terminal His tag cleaved (TEV or 3C); label: 5'-Cy5.
Data set [2] has as its target T1, SMAD3 MH1. The data set is described as above. Particulars: protein: recombinant; tags: N-terminal His tag cleaved (TEV or 3C); chain copies: 2; label: 5'-Cy5.
Data set [3] addresses T1, SMAD3 MH1. In words: EMSA; similar to sense SBE; EMSA: 7.5 nM Cy5-dsDNA, 200 mM Tris pH 7.2, 100 mM NaCl, 2 mM TCEP, 15 min on ice; 6% PAGE in TG buffer, 4 °C; Hill fit, n = 2. The conditions noted are these: protein: recombinant; tags: N-terminal His tag cleaved (TEV or 3C); chain copies: 2; label: 5'-Cy5.

T1 sequence (P84022 10-136): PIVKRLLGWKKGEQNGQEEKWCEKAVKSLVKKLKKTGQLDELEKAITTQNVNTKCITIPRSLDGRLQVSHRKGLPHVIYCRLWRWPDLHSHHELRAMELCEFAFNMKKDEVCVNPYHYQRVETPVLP
Sequence of SMAD4 MH1 (Q13485 18-142): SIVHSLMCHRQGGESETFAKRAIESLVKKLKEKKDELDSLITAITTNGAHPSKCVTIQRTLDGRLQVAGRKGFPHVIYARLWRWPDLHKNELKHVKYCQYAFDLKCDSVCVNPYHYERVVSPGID

B1: pGC-SBE+ (dsDNA)
DNA 1: ATATGGCGCCATAT
DNA 2: ATATGGCGCCATAT
One may read the Kd as the concentration at which binding is half-saturated. Regarding B1, the results for the Kd with SMAD3 MH1 [1] and with SMAD4 MH1 were 293 ± 32 nM and 886 ± 274 nM, respectively.

B2: npGC-SBE+ (dsDNA)
DNA 1: ATATGGCTCCATAT
DNA 2: ATATGGAGCCATAT
On to B2, for which the results for the Kd with SMAD3 MH1 [2] and with SMAD4 MH1 were 660 ± 280 nM and 1340 ± 744 nM, respectively.

B3: SBE+ (dsDNA)
DNA 1: ATATGTCTGATAT
DNA 2: ATATCAGACATAT
In the case of B3, the results for the Kd in the data set with SMAD3 MH1 [2] and in the data set with SMAD4 MH1 were 366 ± 29 nM and 919 ± 70 nM, respectively.

B4: pGC-SBE/SBE heterocomposite, sense SBE (dsDNA)
DNA 1: ATATGGCGCCAACTTGTCTGATATA
DNA 2: TATATCAGACAAGTTGGCGCCATAT
As for B4, in the data set with SMAD3 MH1 [2], the binding result is “binds”.

B5: pGC-SBE/SBE heterocomposite, inverted SBE (dsDNA)
DNA 1: ATATAGTCTGAACTTGGCGCCATAT
DNA 2: ATATGGCGCCAAGTTCAGACTATAT
With B5, the binding result with SMAD3 MH1 [3] is on record as “binds”.

The values above are taken from publication PMC11907993, “Rare but specific: 5-bp composite motifs define SMAD binding in BMP signaling”.
